Like-named read-outs stand apart in the source and are kept apart here. Blank lines part the entries; values can stand above or below the molecule they belong to. Residues, ends and D or L forms follow the SMILES beside them.
How the values were obtained:
[1] = target: T1, GPR1 (Homo sapiens, UniProt P46091); experiment: β-arrestin recruitment (Tango), validation; format: cell-based; set-up: host or cells: HTLA cells (HEK293-derived)
T1 sequence (P46091 1-355): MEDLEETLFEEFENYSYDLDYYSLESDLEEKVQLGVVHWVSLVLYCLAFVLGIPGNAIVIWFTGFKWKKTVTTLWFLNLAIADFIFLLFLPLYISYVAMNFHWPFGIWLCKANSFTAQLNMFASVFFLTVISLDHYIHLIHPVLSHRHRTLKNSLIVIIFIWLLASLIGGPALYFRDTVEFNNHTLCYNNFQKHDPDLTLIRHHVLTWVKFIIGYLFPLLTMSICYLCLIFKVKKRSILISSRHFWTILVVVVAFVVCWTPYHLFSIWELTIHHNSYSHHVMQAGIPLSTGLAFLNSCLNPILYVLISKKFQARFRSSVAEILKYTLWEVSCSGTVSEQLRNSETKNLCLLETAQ

[2] = system: 120 GPCR targets, including all available orphan receptors and 27 known class A peptide receptors; experiment: Peptide library screen, β-arrestin recruitment (Tango, fold change, 10 μM); format: cell-based, human; conditions: for Active at: (activity in b-arrestin recruitment assays): Tango, receptor(s) at which the known library peptide was active, among its known GPCR target(s), validated pairings; for Confirmation of known target in Tango: repeat hitters of the peptide library screen, the value names the known receptor(s) confirmed in the β-arrestin recruitment (Tango) screen
Description: The peptide library was additionally screened against 120 GPCR targets in parallel, including all available orphan receptors and 27 known class A peptide receptors using the Tango assay platform ([Kroeze et al., 2015]). Briefly, HTLA cells (a HEK293 cell line stably expressing a tTA-dependent luciferase reporter and a β-arrestin2-TEV fusion gene) were plated 10,000 cells/well in poly-L-lysine–coated clear-bottom white 384-well plates in DMEM supplemented with 10% FBS, 100 U/ml penicillin and 100 μg/ml streptomycin, 2 μg/ml puromycin and 100 μg/ml hygromycin B. 24 hr later, cells were transfected with Tango GPCR constructs using the calcium phosphate method ([Jordan et al., 1996]). The next day, culture medium was changed to DMEM + 1% dFBS and 10 μM peptides were added for overnight stimulation. Bright-Glo solution (Promega) was incubated for 15–20 min at room temperature, and luminescence was counted using a Trilux luminescence counter (Wallac).

[3] = target: human GPCRs; set-up: method as in Guide to Pharmacology database; conditions: max reported value, ref Guide to Pharmacology database, cited from earlier work; for pEC50_value: receptor XCR1 (xcr1_human, P46094)
From the text: Supplement mmc1.xlsx, sheet "HumanGPCRLigands" | column: pKi_value; pKd_value; pEC50_value; pIC50_value

[4] = receptor CCR1 (ccr1_human, P32246)
[5] = receptor CCR5 (ccr5_human, P51681)
[6] = receptor CCR4 (ccr4_human, P51679)
[7] = receptor PROKR1 (pkr1_human, Q8TCW9)
[8] = receptor PROKR2 (pkr2_human, Q8NFJ6)
[9] = receptor CCR3 (ccr3_human, P51677)

- EC50 ([1]; HTLA cells transiently transfected, overnight stimulation, luciferase, mean ± SEM of 3-4 independent experiments in triplicate, read-out: pEC50, β-arrestin recruitment (Tango), GPR1 (converted)): 2510 nM
Molecule: CC(C)C[C@H](NC(=O)[C@H](CCCNC(=N)N)NC(=O)[C@H](CC(=O)O)NC(=O)[C@H](CC(C)C)NC(=O)[C@@H]1CCCN1C(=O)[C@H](CO)NC(=O)CNC(=O)[C@H](Cc1ccccc1)NC(=O)CNC(=O)[C@H](CO)NC(=O)[C@H](Cc1ccccc1)NC(=O)[C@H](CO)NC(=O)[C@H](CCCNC(=N)N)NC(=O)[C@@H](N)CCCCN)C(=O)N[C@@H](CO)C(=O)N[C@@H](C)C(=O)NCC(=O)N[C@@H](CO)C(=O)N[C@H](C(=O)N[C@@H](CC(=O)O)C(=O)N[C@@H](Cc1c[nH]cn1)C(=O)N[C@@H](CCCCN)C(N)=O)C(C)C [Peptide 141] (H-KRSFSGFGSPLDRLSAGSVDHK-NH2)

- Active at: (activity in b-arrestin recruitment assays) [2]: GPR83
Molecule: AADHDVGSELPPEGVLGALLRV [Peptide 146]

- Active at: (activity in b-arrestin recruitment assays) [2]: V1a V1b V2 OT
Molecule: CYFQNCPRG (disulfide) [Peptide 44]

- Active at: (activity in b-arrestin recruitment assays) [2]: V1a V2 OT
Molecule: CYIQNCPLG (disulfide) [Peptide 45]

- Active at: (activity in b-arrestin recruitment assays) [2]: MC4R
Molecule: DEGPYRMEHFRWGSPPKD [Peptide 126]

Molecule: FGGFTGARKSARKLANQ [Peptide 120]
- Active at: (activity in b-arrestin recruitment assays) [2]: NOP

- Active at: (activity in b-arrestin recruitment assays) [2]: NMUR1
Molecule: FRVDEEFQSPFASQSRGYFLFRPRN [Peptide 159]

- Active at: (activity in b-arrestin recruitment assays) [2]: MLNR
- Confirmation of known target in Tango [2]: Motilin receptor
Molecule: FVPIFTYGELQRMQEKERNKGQ [Peptide 145]

- Active at: (activity in b-arrestin recruitment assays) [2]: NMUR1, NMUR2
- Confirmation of known target in Tango [2]: NMUR1
Molecule: ILQRGSGTAAVDFTKKDHTATWGRPFFLFRPRN [Peptide 195]

- b-arrestin recruitment assays (Tango) Emax (fold change) ([1]; receptor GPR1, mean, SEM and n (2-3)): 14.4 fold change
Molecule: KRSFSGFGSPLDRLSAGSVDHK [141 original]

- Active at: (activity in b-arrestin recruitment assays) [2]: MC4R
Molecule: SYSMEHFRWGKPV [Peptide 93]

- Active at: (activity in b-arrestin recruitment assays) [2]: NPFF1
Molecule: VPNLPQRF [Peptide 29]

- Active at: (activity in b-arrestin recruitment assays) [2]: NPBW1
Molecule: WYKPAAGHSSYSVGRAAGLLSGL [Peptide 152]

- Active at: (activity in b-arrestin recruitment assays) [2]: Inactive
Molecule: YGGFL [Peptide 14]

Molecule: YGGFLRKYP [Peptide 46]
- Active at: (activity in b-arrestin recruitment assays) [2]: Kappa

Molecule: YGGFMTSEKSQTPLVTLFKNAIIKNAYKKGE [Peptide 182]
- Active at: (activity in b-arrestin recruitment assays) [2]: kappa, mu

B1: CCL4 (protein, UniProt P13236 24-92, looked up)
C-C motif chemokine 4: APMGSDPPTACCFSYTARKLPRNFVVDYYETSSLCSQPAVVFQTKRSKQVCADPSESWVQEYVYDLELN
- pKi_value [3, 4]: 7.8
- pKi_value [3, 5]: 9.6

B2: CCL1 (protein, UniProt P22362 24-96, looked up)
C-C motif chemokine 1: KSMQVPFSRCCFSFAEQEIPLRAILCYRNTSSICSNEGLIFKLKRGKEACALDTVGWVQRHRKMLRHCPSKRK
- pIC50_value ([3]; receptor CCR8 (ccr8_human, P51685)): 9.8

B3: CXCL7 (protein, UniProt P02775 59-128, looked up)
Neutrophil-activating peptide …: AELRCMCIKTTSGIHPKNIQSLEVIGKGTHCNQVEVIATLKDGRKICLDPDAPRIKKIVQKKLAGDESAD
modifications: Neutrophil-activating peptide 2
- pIC50_value ([3]; receptor CXCR2 (cxcr2_human, P25025)): 9.3

B4: XCL1 (protein, UniProt P47992 22-114, looked up)
Lymphotactin: VGSEVSDKRTCVSLTTQRLPVSRIKTYTITEGSLRAVIFITKRGLKVCADPQATWVRDVVRSMDRKSNTRNNMIQTKPTGTQQSTNTAVTLTG
- pEC50_value [3]: 7.3

B5: XCL2 (protein, UniProt Q9UBD3 22-114, looked up)
Cytokine SCM-1 beta: VGSEVSHRRTCVSLTTQRLPVSRIKTYTITEGSLRAVIFITKRGLKVCADPQATWVRDVVRSMDRKSNTRNNMIQTKPTGTQQSTNTAVTLTG
- pEC50_value [3]: 7.3

B6: CX3CL1 (protein, UniProt P78423 25-397, looked up)
Fractalkine: QHHGVTKCNITCSKMTSKIPVALLIHYQQNQASCGKRAIILETRQHRLFCADPKEQWVKDAMQHLDRQAAALTRNGGTFEKQIGEVKPRTTPAAGGMDESVVLEPEATGESSSLEPTPSSQEAQRALGTSPELPTGVTGSSGTRLPPTPKAQDGGPVGTELFRVPPVSTAATWQSSAPHQPGPSLWAEAKTSEAPSTQDPSTQASTASSPAPEENAPSEGQRVWGQGQSPRPENSLEREEMGPVPAHTDAFQDWGPGSMAHVSVVPVSSEGTPSREPVASGSWTPKAEEPIHATMDPQRLGVLITPVPDAQAATRRQAVGLLAFLGLLFCLGVAMFTYQSLQGCPRKMAGEMAEGLRYIPRSCGSNSYVLVPV
- pIC50_value ([3]; receptor CX3CR1 (cx3c1_human, P49238)): 8.9

B7: CCL21 (protein, UniProt O00585 24-134, looked up)
C-C motif chemokine 21: SDGGAQDCCLKYSQRKIPAKVVRSYRKQEPSLGCSIPAILFLPRKRSQAELCADPKELWVQQLMQHLDKTPSPQKPAQGCRKDRGASKTGKKGKGSKGCKRTERSQTPKGP
- pIC50_value ([3]; receptor CCR7 (ccr7_human, P32248)): 9.3

B8: CCL22 (protein, UniProt O00626 25-93, looked up)
C-C motif chemokine 22: GPYGANMEDSVCCRDYVRYRLPLRVVKHFYWTSDSCPRPGVVLLTFRDKEICADPRVPWVKMILNKLSQ
- pIC50_value [3, 6]: 9.2

B9: CXCL16 (protein, UniProt Q9H2A7 30-254, looked up)
C-X-C motif chemokine 16: NEGSVTGSCYCGKRISSDSPPSVQFMNRLRKHLRAYHRCLYYTRFQLLSWSVCGGNKDPWVQELMSCLDLKECGHAYSGIVAHQKHLLPTSPPISQASEGASSDIHTPAQMLLSTLQSTQRPTLPVGSLSSDKELTRPNETTIHTAGHSLAAGPEAGENQKQPEKNAGPTARTSATVPVLCLLAIIFILTAALSYVLCKRRRGQSPQSSPDLPVHYIPVAPDSNT
- pKd_value ([3]; receptor CXCR6 (cxcr6_human, O00574)): 9

B10: CCL14 (protein, UniProt Q16627 20-93, looked up)
C-C motif chemokine 14: TKTESSSRGPYHPSECCFTYTTYKIPRQRIMDYYETNSQCSKPGIVFITKRGHSVCTNPSDKWVQDYIKDMKEN
- pKi_value [3, 4]: 7.4
- pKi_value [3, 5]: 7.2

B11: prokineticin-1 (protein, UniProt P58294 20-105, looked up)
Prokineticin-1: AVITGACERDVQCGAGTCCAISLWLRGLRMCTPLGREGEECHPGSHKVPFFRKRKHHTCPCLPNLLCSRFPDGRYRCSMDLKNINF
- pIC50_value [3, 7]: 7.6
- pIC50_value [3, 8]: 7.3

B12: CCL15 (protein, UniProt Q16663 22-113, looked up)
C-C motif chemokine 15: QFTNDAETELMMSKLPLENPVVLNSFHFAADCCTSYISQSIPCSLMKSYFETSSECSKPGVIFLTKKGRQVCAKPSGPGVQDCMKKLKPYSI
- pIC50_value [3, 4]: 7.9
- pIC50_value [3, 9]: 8.6

B13: CCL23 (protein, UniProt P55773 22-120, looked up)
C-C motif chemokine 23: RVTKDAETEFMMSKLPLENPVLLDRFHATSADCCISYTPRSIPCSLLESYFETNSECSKPGVIFLTKKGRRFCANPSDKQVQVCMRMLKLDTRIKTRKN
- pKi_value [3, 4]: 8.9

B14: prokineticin-2 (protein, UniProt Q9HC23 28-129, looked up)
Prokineticin-2: AVITGACDKDSQCGGGMCCAVSIWVKSIRICTPMGKLGDSCHPLTRKNNFGNGRQERRKRKRSKRKKEVPFFGRRMHHTCPCLPGLACLRTSFNRFICLAQK
- pIC50_value [3, 7]: 8.4
- pIC50_value [3, 8]: 8.2

B15: CCL24 (protein, UniProt O00175 27-119, looked up)
C-C motif chemokine 24: VVIPSPCCMFFVSKRIPENRVVSYQLSSRSTCLKAGVIFTTKKGQQFCGDPKQEWVQRYMKNLDAKQKKASPRARAVAVKGPVQRYPGNQTTC
- pIC50_value [3, 9]: 9.4

B16: CCL8 (protein, UniProt P80075 24-99, looked up)
C-C motif chemokine 8: QPDSVSIPITCCFNVINRKIPIQRLESYTRITNIQCPKEAVIFKTKRGKEVCADPKERWVRDSMKHLDQIFQNLKP
- pIC50_value ([3]; receptor CCR2 (ccr2_human, P41597)): 8.6
- pKi_value [3, 5]: 9.3

B17: CCL17 (protein, UniProt Q92583 24-94, looked up)
C-C motif chemokine 17: ARGTNVGRECCLEYFKGAIPLRKLKTWYQTSEDCSRDAIVFVTVQGRAICSDPNNKRVKNAVKYLQSLERS
- pIC50_value [3, 6]: 8.7

From publication PMC6838683, “Discovery of Human Signaling Systems: Pairing Peptides to G Protein-Coupled Receptors” (Cell, 2019)
